Assay results as given in the supplement of paper PMC10065799, “High-throughput profiling of sequence recognition by tyrosine kinases and SH2 domains using bacterial peptide display” (eLife, 2023).

Legend:
c-Src SH2 = assay: SH2 binding enrichment of the phosphorylated peptide, bacterial display (enrichment ratio); higher = better substrate or ligand; peptides without Tyr show the background
Grb2 SH2 = Grb2 SH2 (UniProt P62993); assay: as above
SHP2-C SH2 = assay: as above
FGFR3 = FGFR3 (UniProt P22607); assay: phosphorylation enrichment, bacterial display (enrichment ratio); higher = better substrate or ligand; peptides without Tyr show the background
EPHB2 = EPHB2 (UniProt P29323); assay: as above
c-Src = assay: as above
Fes = Fes (UniProt P07332); assay: as above
Jak2 = Jak2 (UniProt O60674); assay: as above
Fer (mouse) = assay: as above
MERTK = MERTK (UniProt Q12866); assay: as above
Hck = Hck (UniProt P08631); assay: as above
c-Abl (mouse) = assay: as above
Fyn = Fyn (UniProt P06241); assay: as above
FGFR1 = FGFR1 (UniProt P11362); assay: as above
EPHB1 = EPHB1 (UniProt P54762); assay: as above
AncSZ = assay: as above
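For SH2 binding enrichment of the phosphorylated peptide, bacterial display in this document: peptide library displayed on the E. coli surface as eCPX fusions, selected cells deep-sequenced, score is each peptide's frequency after selection divided by its frequency in the input.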
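For phosphorylation enrichment, bacterial display in this document: 11-residue human phosphosite peptides and single-mutation variants displayed on the E. coli surface, counted by deep sequencing, each peptide's frequency after selection divided by its frequency in the unselected input library; frequency after pTyr selection over input frequency; kinase dosed for 20-30% of maximal phosphorylation in three min.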

EPHB2, sequence (P29323 whole entry, looked up): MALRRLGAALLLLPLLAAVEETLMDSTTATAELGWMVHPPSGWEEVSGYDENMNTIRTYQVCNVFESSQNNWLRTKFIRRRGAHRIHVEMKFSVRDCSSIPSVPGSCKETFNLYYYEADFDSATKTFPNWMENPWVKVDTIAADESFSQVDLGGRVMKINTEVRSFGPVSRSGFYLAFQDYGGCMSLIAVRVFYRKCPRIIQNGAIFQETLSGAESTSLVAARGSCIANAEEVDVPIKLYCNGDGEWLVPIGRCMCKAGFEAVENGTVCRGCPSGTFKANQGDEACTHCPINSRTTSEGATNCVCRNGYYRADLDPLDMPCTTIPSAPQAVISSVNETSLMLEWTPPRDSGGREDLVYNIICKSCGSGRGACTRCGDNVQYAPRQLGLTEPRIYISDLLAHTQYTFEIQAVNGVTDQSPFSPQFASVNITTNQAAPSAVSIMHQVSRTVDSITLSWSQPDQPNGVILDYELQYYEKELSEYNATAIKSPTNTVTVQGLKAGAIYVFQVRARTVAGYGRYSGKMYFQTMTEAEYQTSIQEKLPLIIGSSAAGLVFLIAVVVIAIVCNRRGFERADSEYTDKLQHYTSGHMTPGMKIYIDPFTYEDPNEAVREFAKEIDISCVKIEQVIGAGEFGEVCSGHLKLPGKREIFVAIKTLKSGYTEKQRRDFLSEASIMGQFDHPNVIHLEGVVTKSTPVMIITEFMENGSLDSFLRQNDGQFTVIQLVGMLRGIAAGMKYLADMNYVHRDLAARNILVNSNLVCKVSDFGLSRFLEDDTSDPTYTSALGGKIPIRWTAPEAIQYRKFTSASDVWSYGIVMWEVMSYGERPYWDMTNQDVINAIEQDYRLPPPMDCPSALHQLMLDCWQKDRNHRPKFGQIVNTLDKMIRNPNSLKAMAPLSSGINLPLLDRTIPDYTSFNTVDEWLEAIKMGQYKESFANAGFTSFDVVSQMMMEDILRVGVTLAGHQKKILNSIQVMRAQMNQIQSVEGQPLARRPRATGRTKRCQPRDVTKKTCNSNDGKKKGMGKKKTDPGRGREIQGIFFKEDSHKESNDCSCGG
FGFR1, sequence (P11362 whole entry, looked up): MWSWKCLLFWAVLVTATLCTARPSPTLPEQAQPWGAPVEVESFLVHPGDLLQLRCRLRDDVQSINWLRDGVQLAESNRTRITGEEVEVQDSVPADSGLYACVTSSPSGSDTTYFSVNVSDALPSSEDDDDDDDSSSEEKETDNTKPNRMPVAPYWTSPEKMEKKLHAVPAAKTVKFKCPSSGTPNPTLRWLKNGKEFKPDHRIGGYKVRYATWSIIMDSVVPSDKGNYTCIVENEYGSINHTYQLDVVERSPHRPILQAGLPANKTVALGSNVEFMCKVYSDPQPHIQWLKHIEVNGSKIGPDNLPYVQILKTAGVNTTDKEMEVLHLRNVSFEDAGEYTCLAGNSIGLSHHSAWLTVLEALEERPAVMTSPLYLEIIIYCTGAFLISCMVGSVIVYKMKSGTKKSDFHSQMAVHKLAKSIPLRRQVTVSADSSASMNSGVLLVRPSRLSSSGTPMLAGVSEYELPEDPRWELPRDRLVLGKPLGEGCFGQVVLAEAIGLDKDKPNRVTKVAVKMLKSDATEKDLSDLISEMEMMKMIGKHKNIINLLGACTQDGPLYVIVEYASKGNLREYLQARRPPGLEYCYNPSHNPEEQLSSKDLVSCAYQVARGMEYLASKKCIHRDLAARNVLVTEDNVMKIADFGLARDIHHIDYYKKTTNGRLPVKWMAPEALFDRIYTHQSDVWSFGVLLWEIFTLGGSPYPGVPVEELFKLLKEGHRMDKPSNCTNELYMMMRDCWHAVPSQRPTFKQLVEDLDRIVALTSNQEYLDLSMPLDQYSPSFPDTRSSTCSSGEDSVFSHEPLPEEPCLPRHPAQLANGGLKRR
Grb2 SH2, sequence (P62993 whole entry, looked up): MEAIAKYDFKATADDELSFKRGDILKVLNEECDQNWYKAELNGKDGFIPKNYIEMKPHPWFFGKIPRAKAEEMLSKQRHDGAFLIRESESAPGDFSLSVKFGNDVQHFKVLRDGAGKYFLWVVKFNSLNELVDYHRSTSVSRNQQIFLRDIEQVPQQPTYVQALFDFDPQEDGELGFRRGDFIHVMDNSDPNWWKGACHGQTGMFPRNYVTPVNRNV
Jak2, sequence (O60674 whole entry, looked up): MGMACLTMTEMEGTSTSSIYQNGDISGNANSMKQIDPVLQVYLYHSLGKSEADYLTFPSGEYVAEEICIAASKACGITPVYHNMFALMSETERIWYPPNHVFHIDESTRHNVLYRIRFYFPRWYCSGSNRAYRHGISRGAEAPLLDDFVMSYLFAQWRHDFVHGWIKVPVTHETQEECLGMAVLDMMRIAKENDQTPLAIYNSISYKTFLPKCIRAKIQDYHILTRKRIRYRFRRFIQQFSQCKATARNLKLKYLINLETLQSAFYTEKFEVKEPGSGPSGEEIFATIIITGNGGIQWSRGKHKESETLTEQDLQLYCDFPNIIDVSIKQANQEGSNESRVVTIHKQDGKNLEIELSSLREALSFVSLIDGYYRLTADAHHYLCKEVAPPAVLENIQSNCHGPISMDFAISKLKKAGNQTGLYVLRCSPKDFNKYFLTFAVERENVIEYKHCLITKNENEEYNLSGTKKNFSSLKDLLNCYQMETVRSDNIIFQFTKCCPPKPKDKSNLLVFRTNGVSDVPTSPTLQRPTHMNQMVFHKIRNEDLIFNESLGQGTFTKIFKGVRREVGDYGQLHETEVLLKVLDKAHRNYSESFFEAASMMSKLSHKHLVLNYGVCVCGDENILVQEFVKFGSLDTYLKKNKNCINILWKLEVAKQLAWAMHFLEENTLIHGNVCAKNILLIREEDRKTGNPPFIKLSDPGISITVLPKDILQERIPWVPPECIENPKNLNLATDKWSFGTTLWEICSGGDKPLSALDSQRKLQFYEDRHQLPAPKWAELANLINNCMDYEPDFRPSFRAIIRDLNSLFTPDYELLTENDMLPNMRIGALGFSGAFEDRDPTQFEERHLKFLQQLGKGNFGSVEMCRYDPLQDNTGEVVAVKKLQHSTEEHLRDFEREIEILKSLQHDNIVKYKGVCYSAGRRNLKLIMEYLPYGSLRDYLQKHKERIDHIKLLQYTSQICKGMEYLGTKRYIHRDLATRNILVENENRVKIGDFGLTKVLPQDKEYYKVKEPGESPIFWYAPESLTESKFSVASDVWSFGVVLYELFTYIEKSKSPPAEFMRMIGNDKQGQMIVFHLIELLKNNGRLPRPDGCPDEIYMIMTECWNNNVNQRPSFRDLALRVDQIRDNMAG
FGFR3, sequence (P22607 whole entry, looked up): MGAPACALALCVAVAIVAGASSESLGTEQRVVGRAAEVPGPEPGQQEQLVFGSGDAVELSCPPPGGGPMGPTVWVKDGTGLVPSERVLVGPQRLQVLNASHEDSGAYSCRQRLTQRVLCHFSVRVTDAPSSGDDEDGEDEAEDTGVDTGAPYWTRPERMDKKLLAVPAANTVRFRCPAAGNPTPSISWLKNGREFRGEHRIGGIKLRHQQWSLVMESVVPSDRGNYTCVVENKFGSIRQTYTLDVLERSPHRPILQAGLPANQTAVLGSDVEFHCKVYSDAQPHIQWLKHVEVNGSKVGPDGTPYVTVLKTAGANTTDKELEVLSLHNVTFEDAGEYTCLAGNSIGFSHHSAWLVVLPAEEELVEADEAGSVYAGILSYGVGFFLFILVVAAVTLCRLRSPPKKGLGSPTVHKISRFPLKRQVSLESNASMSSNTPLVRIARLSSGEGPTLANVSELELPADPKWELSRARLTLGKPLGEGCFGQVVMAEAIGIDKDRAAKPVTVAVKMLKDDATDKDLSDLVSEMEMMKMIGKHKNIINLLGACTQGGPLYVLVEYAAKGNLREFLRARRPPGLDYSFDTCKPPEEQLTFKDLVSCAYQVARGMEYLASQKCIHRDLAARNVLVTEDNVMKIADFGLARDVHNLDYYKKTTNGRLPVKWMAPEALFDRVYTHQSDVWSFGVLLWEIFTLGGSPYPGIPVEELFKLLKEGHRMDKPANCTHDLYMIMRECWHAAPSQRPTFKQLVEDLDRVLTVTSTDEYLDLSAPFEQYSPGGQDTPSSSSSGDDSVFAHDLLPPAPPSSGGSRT
Hck, sequence (P08631 whole entry, looked up): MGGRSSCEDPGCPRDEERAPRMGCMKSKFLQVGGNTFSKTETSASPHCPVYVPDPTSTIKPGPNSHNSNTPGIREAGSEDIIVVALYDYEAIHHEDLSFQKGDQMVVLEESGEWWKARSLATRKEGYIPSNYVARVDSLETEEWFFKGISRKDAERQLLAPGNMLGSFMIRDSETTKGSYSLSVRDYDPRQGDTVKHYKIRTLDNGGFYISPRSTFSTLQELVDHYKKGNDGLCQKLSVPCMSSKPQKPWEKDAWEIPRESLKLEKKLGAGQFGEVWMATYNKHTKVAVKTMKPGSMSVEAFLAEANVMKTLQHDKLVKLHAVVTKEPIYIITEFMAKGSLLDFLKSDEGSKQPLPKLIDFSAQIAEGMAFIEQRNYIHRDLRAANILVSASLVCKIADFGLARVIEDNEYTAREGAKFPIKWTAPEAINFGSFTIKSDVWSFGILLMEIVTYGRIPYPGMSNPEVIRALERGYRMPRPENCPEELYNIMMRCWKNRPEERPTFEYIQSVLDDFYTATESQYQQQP

Row | Sequence | SH2 binding enrichment (c-Src SH2) | SH2 binding enrichment (Grb2 SH2) | SH2 binding enrichment (SHP2-C SH2) | phosphorylation enrichment (FGFR3) | phosphorylation enrichment (EPHB2) | phosphorylation enrichment (c-Src) | phosphorylation enrichment (Fes) | phosphorylation enrichment (Jak2) | phosphorylation enrichment (Fer (mouse)) | phosphorylation enrichment (MERTK) | phosphorylation enrichment (Hck) | phosphorylation enrichment (c-Abl (mouse)) | phosphorylation enrichment (Fyn) | phosphorylation enrichment (FGFR1) | phosphorylation enrichment (EPHB1) | phosphorylation enrichment (AncSZ)
1 | VDLIVYLRTNP [TK2_Y181] | 0.468 | 0.709 | 0.623 | 0.711 | 0.589 | 0.364 | 1.26 | 1.06 | 0.432 | 0.328 | 0.352 | 0.875 | 0.434 | 0.358 | 0.65 | 1.12
2 | VEFAKYGSLQG [RET_Y809_R813Q_YF] | 0.382 | 0.745 | 0.803 | 0.578 | 0.471 | 0.546 | 0.9 | 0.846 | 0.44 | 0.384 | 0.741 | 0.619 | 0.556 | 0.43 | 0.536 | 0.663
3 | VGTKRYMALEV [ACVRL1_Y375_P378L] | 0.813 | 0.977 | 0.805 | 0.541 | 0.451 | 0.486 | 0.75 | 0.557 | 0.418 | 0.448 | 0.458 | 0.709 | 0.429 | 0.472 | 0.549 | 0.691
4 | VGTKRYMAPDV [ACVRL1_Y375_E379D] | 0.496 | 0.573 | 0.522 | 0.412 | 0.402 | 0.293 | 0.491 | 0.415 | 0.35 | 0.277 | 0.334 | 0.494 | 0.306 | 0.296 | 0.42 | 0.424
5 | VGTKRYMAPEV [ACVRL1_Y375] | 0.511 | 0.804 | 0.616 | 0.446 | 0.428 | 0.373 | 0.61 | 0.637 | 0.395 | 0.389 | 0.407 | 0.532 | 0.361 | 0.413 | 0.351 | 0.611
6 | VHNLDYYKQTT [FGFR3_Y647_K650Q] | 0.49 | 0.984 | 0.752 | 1.34 | 0.617 | 0.697 | 0.955 | 0.945 | 0.525 | 0.607 | 0.485 | 0.555 | 0.586 | 1.36 | 0.686 | 0.934
7 | VIESSYTSADG [DHCR7_Y382_C380S] | 4.23 | 0.894 | 0.861 | 0.627 | 0.596 | 0.546 | 0.961 | 0.873 | 0.519 | 0.596 | 0.476 | 0.618 | 0.551 | 0.531 | 0.468 | 0.892
8 | VILARYGPAWR [CYP2D6_Y124_F120I] | 0.385 | 0.828 | 0.547 | 0.608 | 0.614 | 0.503 | 1.09 | 0.808 | 0.407 | 0.482 | 0.602 | 0.603 | 0.527 | 0.608 | 0.513 | 1.09
9 | VKANTYEKFWP [GATM_Y100_YF] | 0.946 | 0.931 | 0.569 | 0.487 | 0.374 | 2.69 | 0.793 | 0.717 | 0.595 | 1.8 | 1.07 | 0.704 | 1.47 | 0.317 | 0.74 | 0.627
10 | VKKNRYKDILP [PTPN12_Y64] | 0.766 | 0.753 | 0.704 | 0.769 | 0.471 | 0.653 | 0.988 | 0.839 | 0.511 | 0.592 | 0.507 | 0.874 | 0.466 | 0.519 | 0.47 | 0.709
11 | VKRNRYKDILP [PTPN12_Y64_K61R] | 0.483 | 0.541 | 0.364 | 0.47 | 0.695 | 0.628 | 0.561 | 0.528 | 0.49 | 0.553 | 0.579 | 0.514 | 0.689 | 0.463 | 0.575 | 0.65
12 | VLRRVYVDFEG [KMT2B_Y1707] | 1.41 | 1.08 | 0.884 | 0.613 | 0.518 | 0.602 | 0.909 | 0.774 | 0.403 | 0.435 | 0.502 | 0.629 | 0.472 | 0.478 | 0.424 | 0.842
13 | VLTPKYRGGGG [HBA1_Y141_S139P] | 0.557 | 1.03 | 0.691 | 0.413 | 0.372 | 0.34 | 0.464 | 0.335 | 0.364 | 0.35 | 0.32 | 0.421 | 0.363 | 0.348 | 0.328 | 0.498
14 | VLTSKYHGGGG [HBA1_Y141_R142H] | 0.522 | 0.835 | 0.715 | 0.304 | 0.365 | 0.407 | 0.549 | 0.509 | 0.315 | 0.494 | 0.391 | 0.617 | 0.364 | 0.772 | 0.336 | 0.475
15 | VNFDDYTVNLG [GFPT1_Y367] | 0.408 | 0.651 | 0.715 | 0.741 | 0.691 | 1.19 | 1.2 | 1.39 | 0.493 | 0.487 | 0.528 | 0.69 | 0.833 | 0.705 | 0.787 | 1.39
16 | VNFGAYINFFK [GLB1_Y488_D491Y_YF] | 0.611 | 0.918 | 0.784 | 0.963 | 0.558 | 0.717 | 1.75 | 1.87 | 0.624 | 0.57 | 0.495 | 1.49 | 0.441 | 0.663 | 0.586 | 1.38
17 | VNKLVYENING [FRS2_Y306] | 6.33 | 23.9 | 2.03 | 0.454 | 0.75 | 1.78 | 0.8 | 0.539 | 3.63 | 1.64 | 2.67 | 0.524 | 0.95 | 0.52 | 4.71 | 0.665

Row | Sequence | SH2 binding enrichment (c-Src SH2) | SH2 binding enrichment (Grb2 SH2) | SH2 binding enrichment (SHP2-C SH2) | phosphorylation enrichment (FGFR3) | phosphorylation enrichment (EPHB2) | phosphorylation enrichment (c-Src) | phosphorylation enrichment (Fes) | phosphorylation enrichment (Jak2) | phosphorylation enrichment (Fer (mouse)) | phosphorylation enrichment (MERTK) | phosphorylation enrichment (Hck) | phosphorylation enrichment (c-Abl (mouse)) | phosphorylation enrichment (Fyn) | phosphorylation enrichment (FGFR1) | phosphorylation enrichment (EPHB1) | phosphorylation enrichment (AncSZ)
18 | VPVDGYISGLL [PAK6_Y81_M76V] | 0.573 | 0.893 | 0.568 | 0.656 | 0.85 | 0.657 | 1.01 | 1.18 | 0.559 | 0.602 | 0.542 | 0.745 | 0.519 | 0.568 | 0.75 | 0.911
19 | VPVNGYQPVTA [ROR2_Y824_P828T] | 0.6 | 0.846 | 0.635 | 0.535 | 0.414 | 0.309 | 0.535 | 0.494 | 0.336 | 0.392 | 0.348 | 0.516 | 0.541 | 0.375 | 0.392 | 0.492
20 | VQDPAYLRDID [OPRK1_Y369] | 0.564 | 1.14 | 1.04 | 0.708 | 0.657 | 0.425 | 1.13 | 1.24 | 0.465 | 0.468 | 0.567 | 0.905 | 0.425 | 0.533 | 0.45 | 1.16
21 | VSYDEYRYRSV [CFTR_Y515] | 1.45 | 0.978 | 0.822 | 0.484 | 0.417 | 0.743 | 0.942 | 0.71 | 0.381 | 0.428 | 0.586 | 0.667 | 0.633 | 0.455 | 0.485 | 0.754
22 | VTAALYGCLYE [BTD_Y536_R538C] | 0.547 | 0.729 | 0.564 | 0.825 | 1.47 | 4.26 | 1.43 | 1.24 | 2.67 | 2.11 | 4.01 | 0.954 | 5.14 | 0.558 | 1.34 | 1.34
23 | VTHKEYFIFLE [CAMKV_Y95_R92H] | 1.32 | 1.78 | 1.98 | 1.87 | 1.36 | 1.29 | 1.36 | 1.29 | 0.596 | 0.516 | 0.54 | 0.755 | 0.623 | 2.2 | 1.13 | 1.08
24 | VTVLDYDKTGK [SYT1_Y365_I368T] | 0.408 | 0.737 | 0.511 | 0.439 | 0.46 | 0.398 | 0.712 | 0.517 | 0.411 | 0.335 | 0.426 | 0.452 | 0.442 | 0.463 | 0.365 | 0.591
25 | VVEYGYEFFAK [PPP1CB_Y254_D252Y] | 0.946 | 0.942 | 0.675 | 0.995 | 0.82 | 0.719 | 1.56 | 1.47 | 0.835 | 0.601 | 0.72 | 1.09 | 0.609 | 0.762 | 0.798 | 2.57
26 | VVIMLYGVDSR [PKD1_Y3143_G3139V] | 0.645 | 0.981 | 0.826 | 0.924 | 0.72 | 0.524 | 1.57 | 1.35 | 0.682 | 0.399 | 0.594 | 1.04 | 0.592 | 0.545 | 0.879 | 1.29
27 | VVLVSYVPSSQ [SH2B1_Y624] | 0.95 | 1.51 | 1.4 | 0.703 | 0.454 | 0.336 | 0.874 | 0.751 | 0.388 | 0.424 | 0.433 | 0.614 | 0.452 | 0.506 | 0.557 | 0.784
28 | VYAADYYKLLG [ROR2_Y645] | 0.789 | 0.981 | 0.46 | 10.1 | 1.78 | 2.26 | 0.944 | 7.96 | 0.516 | 5.31 | 1.28 | 1.99 | 1.01 | 12.8 | 2.38 | 1.28
29 | VYYYSYLLKNH [PTEN_Y180] | 0.847 | 0.965 | 0.941 | 3.68 | 1.07 | 1.63 | 1.33 | 2.14 | 0.82 | 3.89 | 1.74 | 2.84 | 1.12 | 4.67 | 1.72 | 1.48
30 | WASGIYFVPKG [APBB1IP_Y340_R335W_YF] | 0.848 | 1.29 | 1.17 | 4.26 | 10 | 5.32 | 0.993 | 7.69 | 2.87 | 9 | 7.16 | 28.7 | 7.44 | 4.77 | 10.1 | 2.81
31 | WKKEIYEESST [MOCS2_Y170] | 0.448 | 0.776 | 0.535 | 0.661 | 0.603 | 0.485 | 1.17 | 1.18 | 0.471 | 0.378 | 0.488 | 0.83 | 0.424 | 2.85 | 0.422 | 1.04
32 | WQQQSYLDSEI [CTNNB1_Y30_G34E] | 0.49 | 0.992 | 0.707 | 0.669 | 0.557 | 0.421 | 0.854 | 0.96 | 0.514 | 0.377 | 0.444 | 0.581 | 0.437 | 0.397 | 0.512 | 0.792
33 | YAADYYKLLGN [ROR2_Y646] | 0.504 | 0.683 | 0.467 | 9.3 | 0.863 | 0.908 | 0.993 | 4.53 | 0.634 | 1.47 | 0.808 | 0.769 | 0.452 | 12.5 | 0.963 | 1.1
